Reference: article PMC10917784
Several values for one entry are separate records, joined by “and”; a condition that tells them apart may be missing. Equal values may be shown once. Blank lines part the entries; values can stand above or below the substance they belong to.

Legend:
[1] = biological target: SIRPα (Homo sapiens) (UniProt P78324); conditions: cited from earlier work
[2] = biological target: ISB 1442, CD38 and CD47 bispecific biparatopic antibody (enhanced Fc) (human); assay: SPR; antibody constructs captured on a Protein L Series S CM5 chip, FcRn flowed over; Biacore 8K+, 25 °C, pH 6.0; steady state affinity model; three replicates
[3] = biological target: ISB 1442 with a wild-type Fc (without Fc enhancing mutations) (human); assay: as above
[4] = biological target: trastuzumab; assay: as above
[5] = biological target: ISB 1442, CD38 and CD47 bispecific biparatopic antibody (enhanced Fc) (human); assay: SPR; antibody constructs captured on a Protein L Series S CM5 chip, Fc receptors flowed over; Biacore 8K+, 25 °C, neutral pH; 1:1 binding model (FcγRI and FcγRIIIa); three replicates
[6] = biological target: trastuzumab; assay: as above
[7] = biological target: ISB 1442 (human); assay: SPR; antibody constructs immobilised on a Protein L Series S CM5 chip, increasing concentrations of FcRn flushed; Biacore 8K+, 25 °C, pH 6.0; steady state affinity model
[8] = biological target: ISB 1442 silenced Fc (human); assay: as above
[9] = biological target: Trastuzumab; assay: SPR; antibody constructs immobilised on a Protein L Series S CM5 chip, increasing concentrations of Fc receptor flushed; Biacore 8K+, 25 °C, neutral pH; 1:1 binding model
[10] = biological target: ISB 1442 (human); assay: as above
[11] = biological target: ISB 1442 WT Fc (human); assay: as above

Chain of his-tagged human FcγRIIIa ECD (P08637 17-208): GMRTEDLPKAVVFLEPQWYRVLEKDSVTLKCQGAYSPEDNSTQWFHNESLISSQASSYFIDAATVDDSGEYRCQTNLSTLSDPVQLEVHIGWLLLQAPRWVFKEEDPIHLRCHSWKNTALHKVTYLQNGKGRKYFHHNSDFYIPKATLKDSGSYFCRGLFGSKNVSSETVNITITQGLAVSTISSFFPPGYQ
Chain of human FcγRIIIa ECD (P08637 17-208): as above
Chain of human FcγRI extracellular domain (ECD) (P12314 16-292): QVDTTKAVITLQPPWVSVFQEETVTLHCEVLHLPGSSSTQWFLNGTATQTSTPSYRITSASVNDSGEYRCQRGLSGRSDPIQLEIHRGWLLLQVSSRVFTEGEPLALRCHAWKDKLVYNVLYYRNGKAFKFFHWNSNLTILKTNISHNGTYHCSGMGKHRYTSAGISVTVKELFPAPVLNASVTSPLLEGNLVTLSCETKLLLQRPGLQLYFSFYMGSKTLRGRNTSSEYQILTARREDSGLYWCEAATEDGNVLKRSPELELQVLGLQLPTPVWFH

Kd [2]: 129 nM and 189 nM
Kd ([2]; mean): 181 nM
Kd [3]: 236 nM
Kd [4]: 253 nM and 217 nM and 203 nM
Substance: his-tagged human FcRn ECD & β2 microglobulin (from UniProt P55899 24-297; P61769 21-119) (complex)

Kd [7]: 181 nM
Kd [8]: 221 nM
Substance: human FcRn ECD & β2 microglobulin (from UniProt P55899 24-297; P61769 21-119) (complex)

Kd [10]: 13 nM
Kd [11]: 57 nM
Substance: human FcγRIIIa ECD (from UniProt P08637 17-208) (receptor)

Second part, the substance before the results:

Substance: CD47 (from UniProt Q08722)
Kd [1]: 1000 nM

Substance: his-tagged human FcγRIIIa ECD (from UniProt P08637 17-208) (receptor)
Kd [5]: 13.2 nM and 12.6 nM and 13.8 nM
Kd ([5]; mean): 13.2 nM
Kd [6]: 134 nM

Substance: human FcγRI extracellular domain (ECD) (from UniProt P12314 16-292) (receptor)
Kd [9]: 0.21 nM
